Test results from doi:10.1101/674218 (bioRxiv, 2019).
Blank lines part the entries; values can stand above or below the binder they belong to.

T1: triggering receptor expressed on myeloid cells-1 (TREM-1) on RAW264.7 macrophages (mouse (endogenous in RAW264.7), UniProt Q9JKE2 21-230)
T1 sequence (looked up): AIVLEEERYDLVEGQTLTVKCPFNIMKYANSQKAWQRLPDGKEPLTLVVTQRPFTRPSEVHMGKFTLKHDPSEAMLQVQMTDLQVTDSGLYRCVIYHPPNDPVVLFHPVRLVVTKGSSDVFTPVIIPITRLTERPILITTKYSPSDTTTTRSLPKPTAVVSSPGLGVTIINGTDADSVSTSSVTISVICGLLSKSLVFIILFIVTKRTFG

T2: recombinant murine cold-inducible RNA-binding protein, His-tagged (rmCIRP-his) (mouse), P60824
T2 chain: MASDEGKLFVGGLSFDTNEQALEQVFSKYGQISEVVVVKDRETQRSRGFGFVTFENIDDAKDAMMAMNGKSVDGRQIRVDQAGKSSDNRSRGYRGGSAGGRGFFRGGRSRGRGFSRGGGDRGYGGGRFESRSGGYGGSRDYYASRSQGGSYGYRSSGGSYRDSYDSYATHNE

T3: recombinant mouse TREM-1-Fc Chimera (mouse, UniProt Q9JKE2 21-202)
T3 sequence (looked up): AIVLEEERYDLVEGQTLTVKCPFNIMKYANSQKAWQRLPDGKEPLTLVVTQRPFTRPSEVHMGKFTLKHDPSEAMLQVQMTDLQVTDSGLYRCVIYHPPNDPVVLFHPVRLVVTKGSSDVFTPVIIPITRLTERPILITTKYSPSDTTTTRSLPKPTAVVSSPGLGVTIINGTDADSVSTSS

B1: recombinant murine cold-inducible RNA-binding protein, His-tagged (rmCIRP-his) (natural protein, mouse, UniProt P60824 1-172, looked up)
chain: T2 chain
B2: recombinant mouse TREM-1-Fc Chimera, Q9JKE2 21-202 (Fc fusion)
chain: T3 sequence (looked up)

Columns and labels:
[1] = molecular target: B1; experiment: SPR
[2] = molecular target: T1, triggering receptor expressed on …; experiment: FRET or BRET
[3] = molecular target: T2, recombinant murine cold-inducible …; experiment: SPR; conditions: remark: other sources report otherwise
[4] = molecular target: T3, recombinant mouse TREM-1-Fc Chimera; experiment: SPR

Kd [1]: 48 µM
Binder: LQVTDSGLYRCVIYHPP [LP17, 17 amino acid peptide taken from TREM-1]

Binder: B1
fold increase in FRET units over the negative control CD11b [2]: ~7 fold

Binder: B2
Kd [3]: 0.117 µM

Kd [4]: 35.2 µM
Binder: RGFFRGG [M3, 7-aa peptide derived from CIRP]
